Results published in the supplement of paper PMC10201428.
± gives the standard deviation of the averaged measurements.

Experiments:
[1] = system: VchCAST RNA-guided transposition machinery (E. coli BL21(DE3) host, lacZ target); experiment: relative integration efficiency (T-RL orientation) vs wild-type transposon end (log2 (normalized fold change)); transposon end mutated: right end (5 bp flank + 75 bp right end); higher = more efficient transposition
How it was run: (§1)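 A T7-driven effector plasmid encoding a CRISPR array, tniQ-cas8-cas7-cas6 and tnsA-tnsB-tnsC was co-transformed into E. coli BL21(DE3) together with a pUC57 mini-transposon donor holding barcoded pools of 1549 left-end or 1849 right-end variants. Transformants were plated with 0.1 mM IPTG at 37°C for 18 h. Illumina sequencing of PCR-amplified input plasmids and genomic integration junctions gave barcode abundances, and relative integration efficiency is their output/input fold change, normalised to reference barcodes and log-transformed.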

[2] = system: VchCAST RNA-guided transposition machinery (E. coli BL21(DE3) host, lacZ target); experiment: relative integration efficiency (T-LR orientation) vs wild-type transposon end (log2 (normalized fold change)); transposon end mutated: right end (5 bp flank + 75 bp right end); higher = more efficient transposition
How it was run: as §1

Sequence	relative integration efficiency (log2) [1]	relative integration efficiency (log2) [2]
ACATTTGTTGATACAACCATATATTGATATCTCCAACCATAAGTTGATATTTTTCACAACCATATATTGATATCTCCTCTGATCATAGTCAGACCAACATTGCTACGACCCGTATTCGCACCGACAC	-0.17 ± 0.037	0.0875 ± 0.82
ACATTTGTTGATACAACCATATATTGATATCTCCAACCATAAGTTGATATTTTTCACACCCATAAATTGATAATTACTCTGATCATAGTCAGACCAACATTGCTACGACCCGTATTCGCACCGACAC	-0.491 ± 0.17	0.109 ± 0.44
ACATTTGTTGATACAACCATATATTGATATCTCCAACCATAAGTTGATATTTTTCACACCCATAAATTGATATTGCCTCTGATCATAGTCAGACCAACATTGCTACGACCCGTATTCGCACCGACAC	-0.335 ± 0.081	-0.216 ± 0.018
ACATTTGTTGATACAACCATATATTGATATCTCCAACCATAAGTTGATATTTTTCAGTGGGTATTTAACTATAACGCTCTGATCATAGTCAGACCAACATTGCTACGACCCGTATTCGCACCGACAC	-0.859 ± 0.26	2.468 ± 0.015
ACATTTGTTGATACAACCATATATTGATATCTCCAACCATATATTGATATCTCTCACAACCATAAAATGATAATTACTCTGATCATAGTCAGACCAACATTGCTACGACCCGTATTCGCACCGACAC	-0.562 ± 0.043	-0.08 ± 0.5
ACATTTGTTGATACAACCATATATTGATATCTCCAACCATATATTGATATCTCTCACAACCATAAAGTGATATTTACTCTGATCATAGTCAGACCAACATTGCTACGACCCGTATTCGCACCGACAC	-0.452 ± 0.1	0.0811 ± 0.2
ACATTTGTTGATACAACCATATATTGATATCTCCAACCATATATTGATATCTCTCACAACCATAAGTTGATATTTTCTCTGATCATAGTCAGACCAACATTGCTACGACCCGTATTCGCACCGACAC	-0.571 ± 0.19	-0.0341 ± 0.43
ACATTTGTTGATACAACCATATATTGATATCTCCAACCATATATTGATATCTCTCACAACCATATATTGATATCTCCTCTGATCATAGTCAGACCAACATTGCTACGACCCGTATTCGCACCGACAC	-0.859 ± 0.14	-0.402 ± 0.094
ACATTTGTTGATACAACCATATATTGATATCTCCAACCATATATTGATATCTCTCACACCCATAAATTGATAATTACTCTGATCATAGTCAGACCAACATTGCTACGACCCGTATTCGCACCGACAC	-0.357 ± 0.067	0.23 ± 0.045
ACATTTGTTGATACAACCATATATTGATATCTCCAACCATATATTGATATCTCTCACACCCATAAATTGATATTGCCTCTGATCATAGTCAGACCAACATTGCTACGACCCGTATTCGCACCGACAC	-0.682 ± 0.15	-0.162 ± 0.005
ACATTTGTTGATACAACCATATATTGATATCTCCAACCATATATTGATATCTCTCAGTGGGTATTTAACTATAACGCTCTGATCATAGTCAGACCAACATTGCTACGACCCGTATTCGCACCGACAC	-1.48 ± 0.31	2.41 ± 0.14
ACATTTGTTGATACAACCATATATTGATATCTCCACCCATAAATTGATAATTATCACAACCATAAAATGATAATTACTCTGATCATAGTCAGACCAACATTGCTACGACCCGTATTCGCACCGACAC	-0.253 ± 0.0069	-0.483 ± 0.35
ACATTTGTTGATACAACCATATATTGATATCTCCACCCATAAATTGATAATTATCACAACCATAAAGTGATATTTACTCTGATCATAGTCAGACCAACATTGCTACGACCCGTATTCGCACCGACAC	-0.345 ± 0.0079	-0.378 ± 0.45
ACATTTGTTGATACAACCATATATTGATATCTCCACCCATAAATTGATAATTATCACAACCATAAGTTGATATTTTCTCTGATCATAGTCAGACCAACATTGCTACGACCCGTATTCGCACCGACAC	-0.316 ± 0.1	0.056 ± 0.33
ACATTTGTTGATACAACCATATATTGATATCTCCACCCATAAATTGATAATTATCACAACCATATATTGATATCTCCTCTGATCATAGTCAGACCAACATTGCTACGACCCGTATTCGCACCGACAC	-0.13 ± 0.1	-0.00761 ± 0.26
ACATTTGTTGATACAACCATATATTGATATCTCCACCCATAAATTGATAATTATCACACCCATAAATTGATAATTACTCTGATCATAGTCAGACCAACATTGCTACGACCCGTATTCGCACCGACAC	-0.315 ± 0.0034	-0.06 ± 0.4
ACATTTGTTGATACAACCATATATTGATATCTCCACCCATAAATTGATAATTATCACACCCATAAATTGATATTGCCTCTGATCATAGTCAGACCAACATTGCTACGACCCGTATTCGCACCGACAC	-0.348 ± 0.03	-0.187 ± 0.16
ACATTTGTTGATACAACCATATATTGATATCTCCACCCATAAATTGATAATTATCAGTGGGTATTTAACTATAACGCTCTGATCATAGTCAGACCAACATTGCTACGACCCGTATTCGCACCGACAC	-1.01 ± 0.15	2.29 ± 0.021

Sequence	relative integration efficiency (log2) [1]	relative integration efficiency (log2) [2]
ACATTTGTTGATACAACCATATATTGATATCTCCACCCATAAATTGATATTGCTCACAACCATAAAATGATAATTACTCTGATCATAGTCAGACCAACATTGCTACGACCCGTATTCGCACCGACAC	-0.537 ± 0.12	-0.381 ± 0.46
ACATTTGTTGATACAACCATATATTGATATCTCCACCCATAAATTGATATTGCTCACAACCATAAAGTGATATTTACTCTGATCATAGTCAGACCAACATTGCTACGACCCGTATTCGCACCGACAC	-0.6 ± 0.069	-0.202 ± 0.54
ACATTTGTTGATACAACCATATATTGATATCTCCACCCATAAATTGATATTGCTCACAACCATAAGTTGATATTTTCTCTGATCATAGTCAGACCAACATTGCTACGACCCGTATTCGCACCGACAC	-0.57247 ± 9.5e-05	0.281 ± 0.01
ACATTTGTTGATACAACCATATATTGATATCTCCACCCATAAATTGATATTGCTCACAACCATATATTGATATCTCCTCTGATCATAGTCAGACCAACATTGCTACGACCCGTATTCGCACCGACAC	-0.713 ± 0.056	0.439 ± 0.28
ACATTTGTTGATACAACCATATATTGATATCTCCACCCATAAATTGATATTGCTCACACCCATAAATTGATAATTACTCTGATCATAGTCAGACCAACATTGCTACGACCCGTATTCGCACCGACAC	-0.617 ± 0.12	0.429 ± 0.13
ACATTTGTTGATACAACCATATATTGATATCTCCACCCATAAATTGATATTGCTCACACCCATAAATTGATATTGCCTCTGATCATAGTCAGACCAACATTGCTACGACCCGTATTCGCACCGACAC	-0.524 ± 0.027	0.466 ± 0.081
ACATTTGTTGATACAACCATATATTGATATCTCCACCCATAAATTGATATTGCTCAGTGGGTATTTAACTATAACGCTCTGATCATAGTCAGACCAACATTGCTACGACCCGTATTCGCACCGACAC	-1.2 ± 0.17	2.32 ± 0.041
ACATTTGTTGATACAACCATATTATGATAATTACACCCATAAATTGATAATTATCACACCCATAAATTGATATTGCCTCTGATCATAGTCAGACCAACATTGCTACGACCCGTATTCGCACCGACAC	-0.2975 ± 0.0027	-0.476 ± 0.63
ACATTTGTTGATACAACCATATTATGATAATTACACCCATATTTTGATAATTATCACACCCATATTTTGATATTGCCTCTGATCATAGTCAGACCAACATTGCTACGACCCGTATTCGCACCGACAC	-0.5763 ± 0.0022	-0.471 ± 0.23
ACATTTGTTGATACAACCATATTTAGATAATTACACCCATAAATTGATAATTATCACACCCATAAATTGATATTGCCTCTGATCATAGTCAGACCAACATTGCTACGACCCGTATTCGCACCGACAC	-0.585 ± 0.14	-0.623 ± 0.22
ACATTTGTTGATACAACCATATTTAGATAATTACACCCATATTAAGATAATTATCACACCCATATTAAGATATTGCCTCTGATCATAGTCAGACCAACATTGCTACGACCCGTATTCGCACCGACAC	-2.27 ± 0.31	-1.1 ± 0.36
ACATTTGTTGATACAACCATATTTTGATAATTACACCCATATTATGATAATTATCACACCCATATTATGATATTGCCTCTGATCATAGTCAGACCAACATTGCTACGACCCGTATTCGCACCGACAC	-0.721 ± 0.17	-0.241 ± 0.0091
ACATTTGTTGATACAACCATCAAATGATAATTACACCCATACATTGATAATTATCACACCCAATTTAACTATAACGCTCTGATCATAGTCAGACCAACATTGCTACGACCCGTATTCGCACCGACAC	-2.9 ± 0.42	-0.0308 ± 0.27
ACATTTGTTGATACAACCATCAAATGATAATTACACCCATCAATTGATAATTATCACACCCATCAATTGATATTGCCTCTGATCATAGTCAGACCAACATTGCTACGACCCGTATTCGCACCGACAC	-1.73 ± 0.26	-1.14 ± 0.11
ACATTTGTTGATACAACCATCAAATGATAATTACACCCCTAAATTGATAATTATCACACCCAATTTAACTATAACGCTCTGATCATAGTCAGACCAACATTGCTACGACCCGTATTCGCACCGACAC	-3.41 ± 0.3	-0.622 ± 0.093
ACATTTGTTGATACAACCATCAAATGATAATTACACCCCTACATTGATAATTATCACACCCAATTTAACTATAACGCTCTGATCATAGTCAGACCAACATTGCTACGACCCGTATTCGCACCGACAC	-4.12 ± 0.053	-1.57 ± 0.21
ACATTTGTTGATACAACCATCAAATGATAATTCCACCCATAAATTGATAATTATCACACCCAATTTAACTATAACGCTCTGATCATAGTCAGACCAACATTGCTACGACCCGTATTCGCACCGACAC	-1.53 ± 0.19	1.44 ± 0.11
